Test results published in publication PMC7138811.

Biological target: T1, ASIC1a (human (endogenous in U251 MG, A172, A549)) (UniProt P78348)
T1 sequence: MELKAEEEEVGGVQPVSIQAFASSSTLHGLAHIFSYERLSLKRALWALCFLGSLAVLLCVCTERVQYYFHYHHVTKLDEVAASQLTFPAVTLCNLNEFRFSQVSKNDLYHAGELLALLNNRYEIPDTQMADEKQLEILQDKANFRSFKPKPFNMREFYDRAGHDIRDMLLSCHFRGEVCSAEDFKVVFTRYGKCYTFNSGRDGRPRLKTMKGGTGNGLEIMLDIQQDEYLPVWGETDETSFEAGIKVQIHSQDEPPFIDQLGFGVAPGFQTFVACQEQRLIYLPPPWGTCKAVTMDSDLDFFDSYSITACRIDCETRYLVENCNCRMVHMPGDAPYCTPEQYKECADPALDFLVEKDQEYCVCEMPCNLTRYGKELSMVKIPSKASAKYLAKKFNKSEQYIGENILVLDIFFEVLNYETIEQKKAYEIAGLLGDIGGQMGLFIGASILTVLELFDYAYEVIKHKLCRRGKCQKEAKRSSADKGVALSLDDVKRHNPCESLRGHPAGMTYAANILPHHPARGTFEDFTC

B1: recombinant mambalgin-2 (peptide)
chain: LKCFQHGKVVTCHRDMKFCYHNTGMPFRNLKLILQGCSSSCSETENNKCCSTDRCNK
B1 was tested, and the growth of A172 glioma cells expressing the ASIC1a subunit, EC50 was 10 nM, the growth of A549 lung carcinoma cells expressing the ASIC1a subunit, EC50 was 8 nM and the growth of U251 MG glioma cells expressing the ASIC1a subunit, EC50 was 0.9 nM.
